The source of these data is PMC8155463.

The target of this assay is ZF-AS, fusion protein containing ZF5.3 and human argininosuccinate synthetase (human). The assay is described as follows: SEC.

As for “ZF-AS, fusion protein containing ZF5.3 and human argininosuccinate synthetase (enzyme)”, the stoichiometry N (as a rule, the number of molecules, sites or subunits per partner or assembly) amounted to 4.
